Values quoted from earlier work as cited in PMC4059260.
Like-named read-outs stand apart in the source and are kept apart here.

Columns and labels:
VEGF (Homo sapiens) [1] = target: VEGF (Homo sapiens) (UniProt P15692)
VEGF (Homo sapiens) [2] = target: VEGF (Homo sapiens) (UniProt P15692); remark: listed apart in the source

Chain of UniProt P15692 (P15692 whole entry): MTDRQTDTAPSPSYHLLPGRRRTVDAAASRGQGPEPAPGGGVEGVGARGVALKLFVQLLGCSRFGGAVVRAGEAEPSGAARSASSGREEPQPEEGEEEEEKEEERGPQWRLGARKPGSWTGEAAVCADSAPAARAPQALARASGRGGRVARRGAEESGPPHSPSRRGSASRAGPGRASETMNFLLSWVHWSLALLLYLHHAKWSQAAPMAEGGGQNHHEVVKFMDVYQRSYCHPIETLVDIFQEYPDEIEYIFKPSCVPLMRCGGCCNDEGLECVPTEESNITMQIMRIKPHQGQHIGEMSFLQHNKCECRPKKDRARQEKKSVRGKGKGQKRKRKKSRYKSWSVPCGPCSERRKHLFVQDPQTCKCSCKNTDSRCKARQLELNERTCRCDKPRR

| Substance | Kd (VEGF (Homo sapiens) [1]) [nM] | Kd (VEGF (Homo sapiens) [2]) [nM] |
| --- | --- | --- |
| alpha-2-macroglobulin (from UniProt P01023) | 420 | – |
| sFlt-1 (from UniProt P17948) | – | 0.001 |
